From article PMC9482650, “Quantitative fragmentomics allow affinity mapping of interactomes” (Nature Communications, 2022) come the findings set out here.

Among the targets are MAST2, Q6P0Q8; GORASP1, Q9BQQ3; GIPC2, Q8TF65; FRMPD2_1, Q68DX3; CASK, O14936; Inadl_6, Q8NI35; MAGI2_5, Q86UL8; Inadl_1, Q8NI35; GRIP2_6, Q9C0E4; SCRIB_1, Q14160; DLG1_3, Q12959.
Assay in all cases: holdup assay
What all share (parameters): key: below the threshold = too weak to quantify, mostly under pKd 3.1 to 4

The next assay addresses T1, ARHGEF11, O15085.
T1 sequence (O15085 42-136, limits assumed, looked up): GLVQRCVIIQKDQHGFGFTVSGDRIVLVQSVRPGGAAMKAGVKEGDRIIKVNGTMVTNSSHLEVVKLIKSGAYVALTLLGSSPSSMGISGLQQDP

The next assay addresses T2, GRIP1_5, Q9Y3R0.
T2 sequence (Q9Y3R0 568-668, limits assumed, looked up): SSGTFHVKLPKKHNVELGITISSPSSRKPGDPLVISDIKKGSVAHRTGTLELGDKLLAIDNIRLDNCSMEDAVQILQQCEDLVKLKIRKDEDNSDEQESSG

For another assay, the target named is T3, PDZRN3_1, Q9UPQ7.
T3 sequence (Q9UPQ7 244-349, limits assumed, looked up): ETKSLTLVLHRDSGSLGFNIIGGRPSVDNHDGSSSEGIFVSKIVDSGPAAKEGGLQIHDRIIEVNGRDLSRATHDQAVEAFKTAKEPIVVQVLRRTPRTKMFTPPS

The target in the next assay is T4, APBA2_1, Q99767.
T4 sequence (Q99767 563-664, limits assumed, looked up): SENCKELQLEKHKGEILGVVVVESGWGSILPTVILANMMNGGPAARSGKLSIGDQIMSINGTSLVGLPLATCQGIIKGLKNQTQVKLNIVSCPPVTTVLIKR

In another assay the target is T5, DFNB31_3, Q9P202.
T5 sequence (Q9P202 811-907, limits assumed, looked up): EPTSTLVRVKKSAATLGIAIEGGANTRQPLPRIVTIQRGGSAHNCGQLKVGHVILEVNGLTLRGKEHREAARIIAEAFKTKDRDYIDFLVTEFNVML

The next assay addresses T6, GRIP1_4, Q9Y3R0.
T6 sequence (Q9Y3R0 467-571, limits assumed, looked up): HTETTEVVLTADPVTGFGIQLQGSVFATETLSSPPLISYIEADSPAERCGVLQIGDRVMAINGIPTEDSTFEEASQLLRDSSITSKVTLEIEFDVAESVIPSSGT

For another assay, the target named is T7, HTRA3, P83110.
T7 sequence (P83110 354-453, limits assumed, looked up): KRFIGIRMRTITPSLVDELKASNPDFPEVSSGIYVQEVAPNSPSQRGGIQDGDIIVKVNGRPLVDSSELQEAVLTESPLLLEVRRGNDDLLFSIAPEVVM

In a further assay the target is T8, MPP7, Q5T2T1.
T8 sequence (Q5T2T1 134-230, limits assumed, looked up): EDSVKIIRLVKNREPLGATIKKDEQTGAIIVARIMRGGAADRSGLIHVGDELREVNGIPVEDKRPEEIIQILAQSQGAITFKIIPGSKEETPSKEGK

The target of another assay is T9, LIN7B, Q9HAP6.
T9 sequence (Q9HAP6 88-185, limits assumed, looked up): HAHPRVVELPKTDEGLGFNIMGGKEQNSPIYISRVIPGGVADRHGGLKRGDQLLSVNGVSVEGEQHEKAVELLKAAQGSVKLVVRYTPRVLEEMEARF

Another assay concerns the target T10, SNTB1, Q13884.
T10 sequence (Q13884 107-205, limits assumed, looked up): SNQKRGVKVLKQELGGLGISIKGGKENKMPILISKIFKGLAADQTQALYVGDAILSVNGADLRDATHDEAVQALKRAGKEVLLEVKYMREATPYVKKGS

For the next assay, the target named is T11, TX1BP3, O14907.
T11 sequence (O14907 10-122, limits assumed, looked up): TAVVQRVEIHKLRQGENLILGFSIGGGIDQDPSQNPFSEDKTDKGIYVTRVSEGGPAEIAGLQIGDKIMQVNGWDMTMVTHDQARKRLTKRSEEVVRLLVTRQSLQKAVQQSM

The target of another assay is T12, RAPGEF6, Q8TEU7.
T12 sequence (Q8TEU7 525-625, limits assumed, looked up): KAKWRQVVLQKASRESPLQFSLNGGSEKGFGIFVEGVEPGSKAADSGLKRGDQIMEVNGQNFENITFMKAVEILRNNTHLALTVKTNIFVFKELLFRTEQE

Another assay concerns the target T13, DFNB31_1, Q9P202.
T13 sequence (Q9P202 135-233, limits assumed, looked up): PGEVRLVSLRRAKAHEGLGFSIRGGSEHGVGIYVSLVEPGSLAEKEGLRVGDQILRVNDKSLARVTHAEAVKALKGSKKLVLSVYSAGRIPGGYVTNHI

The mark [1] stands for this setting: plain residues with an end cap or a label only (N-terminal biotin on a linker: ahx).
[2] abbreviates: plain residues with an end cap or a label only (N-terminal biotin on a linker: ttds).
Setting [3] is: plain residues with an end cap or a label only (N-terminal biotin on a linker: ado-ado).

Chain of CASK, O14936 (O14936 487-570): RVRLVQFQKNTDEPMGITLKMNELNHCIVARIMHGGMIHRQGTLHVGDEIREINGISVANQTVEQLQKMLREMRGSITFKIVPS
Chain of DLG1_3, Q12959 (Q12959 457-571): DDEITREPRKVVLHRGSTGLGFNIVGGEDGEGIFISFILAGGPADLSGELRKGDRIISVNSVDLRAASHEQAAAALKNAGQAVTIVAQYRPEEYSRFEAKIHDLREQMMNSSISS
Chain of SCRIB_1, Q14160 (Q14160 718-814): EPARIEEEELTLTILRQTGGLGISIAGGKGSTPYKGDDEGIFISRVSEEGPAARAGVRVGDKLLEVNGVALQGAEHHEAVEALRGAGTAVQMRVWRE
Chain of MAST2, Q6P0Q8 (Q6P0Q8 1099-1202): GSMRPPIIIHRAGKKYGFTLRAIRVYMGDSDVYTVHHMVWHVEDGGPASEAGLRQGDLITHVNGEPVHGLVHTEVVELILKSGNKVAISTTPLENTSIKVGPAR
Chain of Inadl_1, Q8NI35 (Q8NI35 113-229): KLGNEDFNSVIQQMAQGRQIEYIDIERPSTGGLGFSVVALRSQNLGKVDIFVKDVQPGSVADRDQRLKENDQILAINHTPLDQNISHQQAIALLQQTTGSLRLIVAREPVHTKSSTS
Chain of Inadl_6, Q8NI35 (Q8NI35 1058-1167): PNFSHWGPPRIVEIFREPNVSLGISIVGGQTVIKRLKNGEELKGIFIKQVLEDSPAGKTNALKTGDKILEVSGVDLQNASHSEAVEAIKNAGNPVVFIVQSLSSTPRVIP
Chain of GIPC2, Q8TF65 (Q8TF65 112-203): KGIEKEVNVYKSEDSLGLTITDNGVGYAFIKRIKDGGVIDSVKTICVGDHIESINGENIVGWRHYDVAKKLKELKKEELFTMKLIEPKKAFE
Chain of GORASP1, Q9BQQ3 (Q9BQQ3 1-208): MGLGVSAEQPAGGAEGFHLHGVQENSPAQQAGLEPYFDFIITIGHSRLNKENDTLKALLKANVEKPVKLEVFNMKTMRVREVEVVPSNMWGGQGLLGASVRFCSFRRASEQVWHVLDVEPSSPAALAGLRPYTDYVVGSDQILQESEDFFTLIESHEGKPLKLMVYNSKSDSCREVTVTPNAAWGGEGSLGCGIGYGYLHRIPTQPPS
Chain of FRMPD2_1, Q68DX3 (Q68DX3 770-861): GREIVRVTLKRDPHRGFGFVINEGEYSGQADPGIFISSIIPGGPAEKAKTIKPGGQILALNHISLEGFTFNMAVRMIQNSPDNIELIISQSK
Chain of GRIP2_6, Q9C0E4 (Q9C0E4 648-740): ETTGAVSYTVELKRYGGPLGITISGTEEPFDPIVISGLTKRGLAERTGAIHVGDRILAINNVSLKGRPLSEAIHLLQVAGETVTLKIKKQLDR
Chain of MAGI2_5, Q86UL8 (Q86UL8 915-1017): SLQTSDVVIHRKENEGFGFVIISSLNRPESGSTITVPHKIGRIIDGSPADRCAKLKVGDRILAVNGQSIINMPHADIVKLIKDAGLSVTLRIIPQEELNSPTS

With KDECVIATEV [DLL1, O00548], the negative-log Kd (pKd) (as a rule, −log10 of the Kd, conventionally taken in molar units) with ARHGEF11, O15085 (setting [1]) was 4.51; with MAST2, Q6P0Q8 (setting [1]), 5.17; with GRIP1_5, Q9Y3R0 (setting [1]), “below the threshold”; with GORASP1, Q9BQQ3 (setting [1]), “below the threshold”; with PDZRN3_1, Q9UPQ7 (setting [1]) it was “below the threshold”; with GIPC2, Q8TF65 (setting [1]) it was “below the threshold”. Further, the negative-log Kd (pKd) result in the assay with APBA2_1, Q99767 (setting [1]) is “below the threshold”; with DFNB31_3, Q9P202 (setting [1]), “below the threshold”; with GRIP1_4, Q9Y3R0 (setting [1]), “below the threshold”; with FRMPD2_1, Q68DX3 (setting [1]) it was “below the threshold”; with CASK, O14936 (setting [1]), “below the threshold”; in the assay with HTRA3, P83110 (setting [1]) it was “below the threshold”. Moreover, the pKd entry was “below the threshold” with Inadl_6, Q8NI35 (setting [1]); 5.32 with MAGI2_5, Q86UL8 (setting [1]); “below the threshold” in the assay with MPP7, Q5T2T1 (setting [1]); “below the threshold” with LIN7B, Q9HAP6 (setting [1]); 3.64 with SNTB1, Q13884 (setting [1]); “below the threshold” in the assay with Inadl_1, Q8NI35 (setting [1]). The pKd entry with TX1BP3, O14907 (setting [1]) was “below the threshold”; with RAPGEF6, Q8TEU7 (setting [1]), “below the threshold”; in the assay with DFNB31_1, Q9P202 (setting [1]), “below the threshold”; with GRIP2_6, Q9C0E4 (setting [1]), “below the threshold”; with SCRIB_1, Q14160 (setting [1]), “below the threshold”; with DLG1_3, Q12959 (setting [1]) it was “below the threshold”.

For the molecule KQVVPFSSSV [GDA, Q9Y2T3], the pKd is 3.56 with ARHGEF11, O15085 (setting [2]); 4.83 in the assay with MAST2, Q6P0Q8 (setting [2]); “below the threshold” in the assay with GRIP1_5, Q9Y3R0 (setting [2]); “below the threshold” with GORASP1, Q9BQQ3 (setting [2]); “below the threshold” in the assay with PDZRN3_1, Q9UPQ7 (setting [2]); “below the threshold” with GIPC2, Q8TF65 (setting [2]). Also, the negative-log Kd (pKd) entry is on record as “below the threshold” with APBA2_1, Q99767 (setting [2]); “below the threshold” with DFNB31_3, Q9P202 (setting [2]); “below the threshold” in the assay with GRIP1_4, Q9Y3R0 (setting [2]); “below the threshold” with FRMPD2_1, Q68DX3 (setting [2]); “below the threshold” with CASK, O14936 (setting [2]); “below the threshold” with HTRA3, P83110 (setting [2]). Further, the negative-log Kd (pKd) result in the assay with Inadl_6, Q8NI35 (setting [2]) is “below the threshold”; with MAGI2_5, Q86UL8 (setting [2]), 3.74; in the assay with MPP7, Q5T2T1 (setting [2]), “below the threshold”; with LIN7B, Q9HAP6 (setting [2]), “below the threshold”; with SNTB1, Q13884 (setting [2]), 3.65; with Inadl_1, Q8NI35 (setting [2]), “below the threshold”. Moreover, the pKd with TX1BP3, O14907 (setting [2]) was 4.31; with RAPGEF6, Q8TEU7 (setting [2]) it was “below the threshold”; with DFNB31_1, Q9P202 (setting [2]), “below the threshold”; with GRIP2_6, Q9C0E4 (setting [2]) it was “below the threshold”; with SCRIB_1, Q14160 (setting [2]), 3.51; with DLG1_3, Q12959 (setting [2]) it was “below the threshold”.

Consider IGHEDLETAV [DGKI, O75912], for which the pKd with ARHGEF11, O15085 (setting [3]) was 4.55; with MAST2, Q6P0Q8 (setting [3]), 5.47; in the assay with GRIP1_5, Q9Y3R0 (setting [3]), “below the threshold”; in the assay with GORASP1, Q9BQQ3 (setting [3]), “below the threshold”; with PDZRN3_1, Q9UPQ7 (setting [3]), 4.75; with GIPC2, Q8TF65 (setting [3]) it was 3.6. In addition, the negative-log Kd (pKd) result is “below the threshold” in the assay with APBA2_1, Q99767 (setting [3]); 3.92 with DFNB31_3, Q9P202 (setting [3]); “below the threshold” with GRIP1_4, Q9Y3R0 (setting [3]); “below the threshold” with FRMPD2_1, Q68DX3 (setting [3]); “below the threshold” with CASK, O14936 (setting [3]); “below the threshold” with HTRA3, P83110 (setting [3]). For the same molecule, the pKd with Inadl_6, Q8NI35 (setting [3]) is 4.1; in the assay with MAGI2_5, Q86UL8 (setting [3]) it was 4.82; with MPP7, Q5T2T1 (setting [3]) it was “below the threshold”; with LIN7B, Q9HAP6 (setting [3]) it was 4.11; with SNTB1, Q13884 (setting [3]) it was 5.08; with Inadl_1, Q8NI35 (setting [3]) it was “below the threshold”. Besides, the negative-log Kd (pKd) with TX1BP3, O14907 (setting [3]) was 4.3; with RAPGEF6, Q8TEU7 (setting [3]), “below the threshold”; in the assay with DFNB31_1, Q9P202 (setting [3]) it was 4.79; in the assay with GRIP2_6, Q9C0E4 (setting [3]) it was “below the threshold”; with SCRIB_1, Q14160 (setting [3]), 4.49; with DLG1_3, Q12959 (setting [3]), 3.68.

On to GARVSKETPL [MAPK12, P53778], for which the negative-log Kd (pKd) in the assay with ARHGEF11, O15085 (setting [2]) is 3.48; with MAST2, Q6P0Q8 (setting [2]), 4.78; with GRIP1_5, Q9Y3R0 (setting [2]), “below the threshold”; in the assay with GORASP1, Q9BQQ3 (setting [2]), “below the threshold”; in the assay with PDZRN3_1, Q9UPQ7 (setting [2]), 4.84; with GIPC2, Q8TF65 (setting [2]), “below the threshold”. Besides, the pKd entry is recorded as “below the threshold” with APBA2_1, Q99767 (setting [2]); “below the threshold” in the assay with DFNB31_3, Q9P202 (setting [2]); “below the threshold” with GRIP1_4, Q9Y3R0 (setting [2]); “below the threshold” with FRMPD2_1, Q68DX3 (setting [2]); “below the threshold” with CASK, O14936 (setting [2]); “below the threshold” in the assay with HTRA3, P83110 (setting [2]). Besides, the pKd with Inadl_6, Q8NI35 (setting [2]) was 3.55; in the assay with MAGI2_5, Q86UL8 (setting [2]), “below the threshold”; with MPP7, Q5T2T1 (setting [2]), “below the threshold”; with LIN7B, Q9HAP6 (setting [2]) it was 3.86; with SNTB1, Q13884 (setting [2]), 4.71; with Inadl_1, Q8NI35 (setting [2]), “below the threshold”. For the same molecule, the pKd in the assay with TX1BP3, O14907 (setting [2]) is 4.26; with RAPGEF6, Q8TEU7 (setting [2]) it was “below the threshold”; with DFNB31_1, Q9P202 (setting [2]) it was 3.95; in the assay with GRIP2_6, Q9C0E4 (setting [2]), “below the threshold”; in the assay with SCRIB_1, Q14160 (setting [2]), 4.94; in the assay with DLG1_3, Q12959 (setting [2]) it was 3.95.
